{"source": "the RNAGym collection of RNA variant scans (doi:10.1093/molbev/msab373)", "parents": {"B1": {"name": "Azoarcus group I ribozyme (parent)", "chain": "GUGCCUUGCGCCGGGAAACCACGCAAGGGAUGGUGUCAAAUUCGGCGAAACCUAAGCGCCCGCCCGGGCGUAUGGCAACGCCGAGCCAAGCUUCGGCGCCUGCGCCGAUGAAGGUGUAGAGACUAGACGGCACCCACCUAAGGCAAACGCUAUGGUGAAGGCAUAGUCCAGGGAGUGGCGAAAGUCACACAAACCGG"}}, "data": [{"variants_of": "B1", "experiment": "reverse-splicing fitness (ratio to wild type); higher = more active; in vitro selection; Mg2+ level not given", "method_in_brief": "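An in vitro group I ribozyme library with randomized positions was T7-transcribed and gel-purified. In triplicate, 10 pmol RNA in EPPS pH 7.5 was reacted with 50 pmoles of a 30-nt RNA substrate for 1 h at 37 °C across several added MgCl2 levels (1–48 mM), then stopped with EDTA. Products were reverse transcribed from a substrate-complementary primer, PCR-amplified and sequenced (HiSeq 4000). Fitness is a variant's read proportion after selection over that before, normalised to wild type.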", "values": [{"variant": "C82U A111C A145C C150U U176G", "reverse-splicing fitness": 0.00938}, {"variant": "C82U A111C A145C C150U U176A", "reverse-splicing fitness": 0.0229}, {"variant": "C82U A111C A145C C150U U176C", "reverse-splicing fitness": 0.0358}, {"variant": "C82U A111C A120U A145G C169U", "reverse-splicing fitness": 0.00448}, {"variant": "C82U A111C A120U A145G C169G", "reverse-splicing fitness": 0.0042}, {"variant": "C82U A111C A120U A145G C169A", "reverse-splicing fitness": 0.00276}, {"variant": "C82U A111C A120U C150G C169A U176C", "reverse-splicing fitness": 0.00467}, {"variant": "C82U A111C A120U C150G C169A U176G", "reverse-splicing fitness": 0.00261}, {"variant": "C82U A111C A120U C150G C169A U176A", "reverse-splicing fitness": 0.00624}, {"variant": "C82U A111C A145U C150U C169A U176C", "reverse-splicing fitness": 0.011}, {"variant": "C82U A111C A145U C150U C169A U176A", "reverse-splicing fitness": 0.0126}, {"variant": "C82U A111C A145U C150U C169A U176G", "reverse-splicing fitness": 0.00765}, {"variant": "C82U A111C A145U C150U C169A", "reverse-splicing fitness": 0.00889}, {"variant": "C82U A111C A145C U176C", "reverse-splicing fitness": 0.0915}, {"variant": "C82U A111C A145C U176A", "reverse-splicing fitness": 0.0676}, {"variant": "C82U A111C A145C U176G", "reverse-splicing fitness": 0.0186}, {"variant": "C82U A111C A120U A145U C150U C169U U176G", "reverse-splicing fitness": 0.00223}, {"variant": "C82U A111C A120U A145U C150U C169U U176C", "reverse-splicing fitness": 0.003}, {"variant": "C82U A111C A120U A145U C150U C169U U176A", "reverse-splicing fitness": 0.00267}, {"variant": "C82U A111C A120U A145G C150G C169G U176G", "reverse-splicing fitness": 0.00376}, {"variant": "C82U A111C A120U A145G C150G C169G U176C", "reverse-splicing fitness": 0.00782}, {"variant": "C82U A111C A120U A145G C150G C169G U176A", "reverse-splicing fitness": 0.00829}, {"variant": "C82U A111C A120U A145U C150U C169A U176A", "reverse-splicing fitness": 0.00306}, {"variant": "C82U A111C A120U A145U C150U C169A U176C", "reverse-splicing fitness": 0.00282}, {"variant": "C82U A111C A120U A145U C150U C169A U176G", "reverse-splicing fitness": 0.00229}, {"variant": "C82U A111C A120U A145U C150A C169U U176C", "reverse-splicing fitness": 0.00256}, {"variant": "C82U A111C A120U A145U C150A C169U U176A", "reverse-splicing fitness": 0.00365}, {"variant": "C82U A111C A120U A145U C150A C169U U176G", "reverse-splicing fitness": 0.00245}, {"variant": "C82U A111C A145G C169A U176C", "reverse-splicing fitness": 0.0298}, {"variant": "C82U A111C A145G C169A U176A", "reverse-splicing fitness": 0.0231}, {"variant": "C82U A111C A145G C169A U176G", "reverse-splicing fitness": 0.00741}, {"variant": "C82U A111C A120U C150A C169A U176C", "reverse-splicing fitness": 0.00354}, {"variant": "C82U A111C A120U C150A C169A U176A", "reverse-splicing fitness": 0.00438}, {"variant": "C82U A111C A120U C150A C169A U176G", "reverse-splicing fitness": 0.00303}, {"variant": "C82U A111C A120U A145U C169G U176G", "reverse-splicing fitness": 0.00187}, {"variant": "C82U A111C A120U A145U C169G U176A", "reverse-splicing fitness": 0.00259}, {"variant": "C82U A111C A120U A145U C169G U176C", "reverse-splicing fitness": 0.00286}, {"variant": "C82U A111C A120U C150A U176A", "reverse-splicing fitness": 0.00441}, {"variant": "C82U A111C A120U C150A U176G", "reverse-splicing fitness": 0.00295}, {"variant": "C82U A111C A120U C150A U176C", "reverse-splicing fitness": 0.00573}, {"variant": "C82U A111C A120U A145U C169U", "reverse-splicing fitness": 0.00366}, {"variant": "C82U A111C A120U A145U C169A", "reverse-splicing fitness": 0.00238}, {"variant": "C82U A111C A120U A145U C169G", "reverse-splicing fitness": 0.00369}, {"variant": "C82U A111C A145C C169U U176G", "reverse-splicing fitness": 0.00632}, {"variant": "C82U A111C A145C C169U U176A", "reverse-splicing fitness": 0.0157}, {"variant": "C82U A111C A145C C169U U176C", "reverse-splicing fitness": 0.0113}, {"variant": "C82U A111C A120U C169A U176A", "reverse-splicing fitness": 0.00309}, {"variant": "C82U A111C A120U C169A U176G", "reverse-splicing fitness": 0.00185}, {"variant": "C82U A111C A120U C169A U176C", "reverse-splicing fitness": 0.00352}, {"variant": "C82U A111C A145G C150U C169G U176A", "reverse-splicing fitness": 0.0107}, {"variant": "C82U A111C A145G C150U C169G U176G", "reverse-splicing fitness": 0.00674}, {"variant": "C82U A111C A145G C150U C169G U176C", "reverse-splicing fitness": 0.0158}, {"variant": "C82U A111C A120U A145U C150A C169U", "reverse-splicing fitness": 0.00262}, {"variant": "C82U A111C A120U A145U C150A C169G", "reverse-splicing fitness": 0.00265}, {"variant": "C82U A111C A120U A145U C150A C169A", "reverse-splicing fitness": 0.00298}, {"variant": "C82U A111C A145G C150G C169A", "reverse-splicing fitness": 0.0079}, {"variant": "C82U A111C A145G C150G C169G", "reverse-splicing fitness": 0.00689}, {"variant": "C82U A111C A145G C150G C169U", "reverse-splicing fitness": 0.00879}, {"variant": "C82U A111C A145C C169A U176C", "reverse-splicing fitness": 0.00939}, {"variant": "C82U A111C A145C C169A U176G", "reverse-splicing fitness": 0.00613}, {"variant": "C82U A111C A145C C169A U176A", "reverse-splicing fitness": 0.0127}, {"variant": "C82U A111C A145U C150A C169G U176C", "reverse-splicing fitness": 0.0178}, {"variant": "C82U A111C A145U C150A C169G U176G", "reverse-splicing fitness": 0.00796}, {"variant": "C82U A111C A145U C150A C169G U176A", "reverse-splicing fitness": 0.0138}, {"variant": "C82U A111C A120U C150G U176A", "reverse-splicing fitness": 0.0035}, {"variant": "C82U A111C A120U C150G U176C", "reverse-splicing fitness": 0.00605}, {"variant": "C82U A111C A120U C150G U176G", "reverse-splicing fitness": 0.00291}, {"variant": "C82U A111C A120U A145U C150A C169A U176C", "reverse-splicing fitness": 0.00253}, {"variant": "C82U A111C A120U A145U C150A C169A U176A", "reverse-splicing fitness": 0.00217}, {"variant": "C82U A111C A120U A145U C150A C169A U176G", "reverse-splicing fitness": 0.00255}, {"variant": "C82U A111C A120U C169U U176A", "reverse-splicing fitness": 0.0057}, {"variant": "C82U A111C A120U C169U U176G", "reverse-splicing fitness": 0.00178}, {"variant": "C82U A111C A120U C169U U176C", "reverse-splicing fitness": 0.00419}, {"variant": "C82U A111C A145G C150U C169U U176C", "reverse-splicing fitness": 0.0121}, {"variant": "C82U A111C A145G C150U C169U U176A", "reverse-splicing fitness": 0.0144}, {"variant": "C82U A111C A145G C150U C169U U176G", "reverse-splicing fitness": 0.00645}, {"variant": "C82U A111C A145U C150G C169U U176C", "reverse-splicing fitness": 0.0119}, {"variant": "C82U A111C A145U C150G C169U U176A", "reverse-splicing fitness": 0.00807}, {"variant": "C82U A111C A145U C150G C169U U176G", "reverse-splicing fitness": 0.00671}, {"variant": "C82U A111C A120U A145G U176A", "reverse-splicing fitness": 0.00722}, {"variant": "C82U A111C A120U A145G U176C", "reverse-splicing fitness": 0.0113}, {"variant": "C82U A111C A120U A145G U176G", "reverse-splicing fitness": 0.00307}, {"variant": "C82U A111C A120U A145U U176G", "reverse-splicing fitness": 0.00361}]}]}
